Reference: patent US20150376237A1, “POLYPEPTIDES FOR BLOOD BRAIN BARRIER TRANSPORT” (SAGETIS BIOTECH, SL, priority 2012, published 2015)

System: in vitro BBB model (bovine brain endothelial cells co-cultured with mouse mixed glial cells)
Assay: Fluorescently-labelled peptide in vitro BBB model crossing test
Settings: fluorescent peptide, 20 μg/ml fluorophore in DMEM/F12, 60 min at 37° C.
Description: Mouse primary cultures of mixed glial cells are seeded on a 24-well plate and bovine brain endothelial cells are cultured on collagen-coated inserts in another plate. After three days, the inserts are moved into astrocyte-containing plates and cultured for a further three days. To assess the integrity of the in vitro BBB, trans-endothelial electrical resistance (TEER) is measured on the day of the experiment. TEER values higher than 200Ω/cm^2 are considered acceptable.
Peptides are applied at 20 μg/ml of fluorophore in the luminal side of the inserts and placed in wells filled with Ringer-Hepes buffer (the composition of Ringer-Hepes buffer is described above). After 1 h incubation, samples from the upper and lower compartments are collected and measured using a fluorimeter. […]
All samples (t=0 up, t=0 down, t=60 up and t=60 down) from each condition (testing peptides and negative control) are plated in black 96-well microplates as well as the corresponding standard curves. Fluorescence is measured using a multi-well plate reader. […]
The endothelial permeability coefficient values for LY and the tested peptide are also determined. […] The increment in cleared volume between the incubation times is calculated by dividing the amount of transported compound by the donor chamber concentration and calculating the total volume cleared, as shown below: […]

Question: How did the “Percentage BBB crossing” value turn out when “SEQ ID NO: 12: GDAAAAKAAKAAAKAAADGY, rigid polypeptide, single domain binder (Rigid_1)” was run?
Answer: Its value is “Percentage BBB crossing: 7.51%”.
